From article PMC10485164, “Sequence-specific targeting of Caenorhabditis elegans C-Ala to the D-loop of tRNAAla”
Where a chain is given by its changes, count along the chain named.

Columns and labels:
[1] = test system: CeAlaRSm (mitochondrial AlaRS) (Caenorhabditis elegans); assay: EMSA; conditions: 5 mM Mg2+; EMSA: 20 mM Hepes pH 7.5, 20 mM KCl, 5 mM MgCl2, 2 mM DTT, 10 min on ice, 0.1 uM ligand; 5% native PAGE in 0.5x TBE at 4 C; protein 0.125-32 uM
[2] = test system: Ce-C-Alam (C-Ala of mitochondrial AlaRS) (Caenorhabditis elegans); assay: EMSA; conditions: 5 mM Mg2+; EMSA: 20 mM Hepes pH 7.5, 20 mM KCl, 5 mM MgCl2, 2 mM DTT, 10 min on ice, 0.1 uM ligand; 5% native PAGE in 0.5x TBE at 4 C; protein 0.125-32 uM
[3] = test system: CeAlaRSm(ΔC) (Caenorhabditis elegans); assay: EMSA; conditions: 5 mM Mg2+; EMSA: 20 mM Hepes pH 7.5, 20 mM KCl, 5 mM MgCl2, 2 mM DTT, 10 min on ice, 0.1 uM ligand; 5% native PAGE in 0.5x TBE at 4 C; protein 0.125-32 uM
[4] = target: T1, Ce-C-Alac (C-Ala of cytoplasmic AlaRS) (Caenorhabditis elegans, UniProt O01541 757-968); assay: EMSA; 5 mM Mg2+; EMSA: 20 mM Hepes pH 7.5, 20 mM KCl, 5 mM MgCl2, 2 mM DTT, 10 min on ice, 0.1 uM ligand; 5% native PAGE in 0.5x TBE at 4 C; protein 0.125-32 uM; conditions: protein: recombinant; tags: His6 (C-terminal, pET21b); label: 5'-32P; two hairpins
T1 sequence: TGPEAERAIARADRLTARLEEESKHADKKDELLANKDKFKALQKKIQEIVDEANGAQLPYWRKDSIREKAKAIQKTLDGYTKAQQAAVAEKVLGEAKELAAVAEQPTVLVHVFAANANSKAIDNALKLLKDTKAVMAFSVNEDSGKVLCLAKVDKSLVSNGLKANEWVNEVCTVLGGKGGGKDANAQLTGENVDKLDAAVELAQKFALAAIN

[5] = target: T1, Ce-C-Alac (C-Ala of cytoplasmic AlaRS); assay: as above; conditions: protein: recombinant, tags: His6 (C-terminal, pET21b), label: 5'-32P
[6] = target: T2, Ce-C-Alac globular subdomain (GS) (Caenorhabditis elegans, UniProt O01541 859-968); assay: as above; conditions: protein: recombinant, tags: His6 (C-terminal, pET21b), label: 5'-32P
T2 sequence: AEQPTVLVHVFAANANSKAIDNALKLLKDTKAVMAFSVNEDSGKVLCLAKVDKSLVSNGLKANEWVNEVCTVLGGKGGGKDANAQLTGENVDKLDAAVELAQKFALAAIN

[7] = target: T3, Ce-C-Alac helical subdomain (HS) (Caenorhabditis elegans, UniProt O01541 757-858); assay: as above; conditions: protein: recombinant, tags: His6 (C-terminal, pET21b), label: 5'-32P
T3 sequence: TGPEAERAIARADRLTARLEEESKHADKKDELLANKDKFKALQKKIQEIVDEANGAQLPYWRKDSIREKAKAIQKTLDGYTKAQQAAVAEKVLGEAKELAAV

In the case of “GGGAUUUUAGUUUAGUGGUAAAAUAUAUGUUUUGCAUACAUAAGAUAAUAAUUCUACCA [DLnAla mut (CetRNAmAla with D-loop of CetRNAnAla)]”, the Kd [1] is reported as 1000 nM, the Kd [2] is reported as 4000 nM and the Kd [3] is reported as over 32000 nM.

Work on “GGGAUUUUAGUUUAAUAAAAAUAUAUGUUUUGCAUACAUAAGAUAAUAAUUCUACCA [CetRNAmAla]” yielded a Kd [1] of 200 nM, a Kd [2] of 200 nM and a Kd [3] of over 32000 nM.

In the case of “GGGGGUAUAGCUCAGUGGUAGAGCGCUCCCUUAGCAUGGGAGAGGGCUGGGGUUCAAUUCCCCAUACCUCCACCA [CetRNAnAla]”, the binding signal (fold lower affinity than CetRNAmAla) [2] is reported as 7.5.

In the case of GCUCCCUGGUAGAGCGCUCCCUUAGCAUGGGAG (structured_RNA) [biloop AG mutant (A14G15 to CC)], the binding signal [4] is reported as 4 fold lower affinity than WT biloop.

With GCUCAGUGGUAGAGCGCUCCCUUAGCAUGGGAG (structured_RNA) [biloop (D-arm-anticodon arm of CetRNAnAla)] the Kd ([5]; two hairpins) was 2000 nM, the Kd ([6]; two hairpins) was 2000 ± 400 nM and the Kd ([7]; two hairpins) was 6000 ± 400 nM.

GGGGGUAUGGGGUUCAAUUCCCCAUACCUCCACCA (structured_RNA) [minihelix (T-arm-acceptor stem of CetRNAnAla)] gave a Kd ([6]; hairpin) of 9000 ± 200 nM and a Kd ([7]; hairpin) of 11000 ± 100 nM.

B1: CetRNAmAla (structured_RNA)
RNA: GGGAUUUUAGUUUAAUAAAAAUAUAUGUUUUGCAUACAUAAGAUAAUAAUUCUACCA
Molecule B1 has a Kd ([5]; tRNA) of 4500 nM.

B2: DLmAla mut (CetRNAnAla with D-loop of CetRNAmAla) (structured_RNA)
RNA: GGGGGUAUAGCUCAAUAAGAGCGCUCCCUUAGCAUGGGAGAGGGCUGGGGUUCAAUUCCCCAUACCUCCACCA
B2 was tested, and the Kd ([5]; tRNA) was 6500 nM.

B3: SctRNAnGly (structured_RNA)
RNA: GCGCAAGUGGUUUAGUGGUAAAAUCCAACGUUGCCAUCGUUGGGCCCCCGGUUCGAUUCCGGGCUUGCGCACCA
B3 was tested, and the Kd ([5]; tRNA cloverleaf) was 900 nM.

B4: CetRNAnAla (structured_RNA)
RNA: GGGGGUAUAGCUCAGUGGUAGAGCGCUCCCUUAGCAUGGGAGAGGGCUGGGGUUCAAUUCCCCAUACCUCCACCA
For B4, the Kd ([5]; tRNA cloverleaf) was 800 nM, the Kd ([6]; tRNA cloverleaf) was 500 nM and the Kd ([7]; tRNA cloverleaf) was 2000 nM.

B5: CetRNAnAla A14G15C48 mutant (structured_RNA)
RNA: B4 RNA with A14G, G15A, C47U
B5 showed a Kd ([5]; tRNA) of 2000 nM.

B6: CetRNAnAla G18G19C56 mutant (structured_RNA)
RNA: B4 RNA with G17A, G18A, C55U
Molecule B6 has a Kd ([5]; tRNA) of 8000 nM.

B7: CetRNAnAla A14G15 mutant (to GA) (structured_RNA)
RNA: B4 RNA with A14G, G15A
With B7 the Kd ([5]; tRNA, conformation disrupted) was 10000 nM.
